{"source": "patent US10358663B2", "about": "“Method of production of 2,4-dihydroxybutyric acid” (ADISSEO FRANCE S.A.S., priority 2010, dated 2019)", "molecules": {"B1": {"name": "Hom3: wild-type aspartate kinase of Saccharomyces cerevisiae encoded by HOM3 (protein, listed as Saccharomyces cerevisiae)", "chain": "MPMDFQPTSSHSNWVVQKFGGTSVGKFPVQIVDDIVKHYSKPDGPNNNVAVVCSARSSYTKAEGTTSRLLKCCDLASQESEFQDIIEVIRQDHIDNADRFILNPALQAKLVDDTNKELELVKKYLNASKVLGEVSSRTVDLVMSCGEKLSCLFMTALCNDRGCKAKYVDLSHIVPSDFSASALDNSFYTFLVQALKEKLAPFVSAKERIVPVFTGFFGLVPTGLLNGVGRGYTDLCAALIAVAVNADELQVWKEVDGIFTADPRKVPEARLLDSVTPEEASELTYYGSEVIHPFTMEQVIRAKIPIRIKNVQNPLGNGTIIYPDNVAKKGESTPPHPPENLSSSFYEKRKRGATAITTKNDIFVINIHSNKKTLSHGFLAQIFTILDKYKLVVDLISTSEVHVSMALPIPDADSLKSLRQAEEKLRILGSVDITKKLSIVSLVGKHMKQYIGIAGTMFTTLAEEGINIEMISQGANEINISCVINESDSIKALQCIHAKLLSERTNTSNQFEHAIDERLEQLKRLGI"}, "B2": {"name": "LysC: wild-type aspartate kinase III of E. coli encoded by the lysC gene (protein, listed as Escherichia coli)", "chain": "MSEIVVSKFGGTSVADFDAMNRSADIVLSDANVRLVVLSASAGITNLLVALAEGLEPGERFEKLDAIRNIQFAILERLRYPNVIREEIERLLENITVLAEAAALATSPALTDELVSHGELMSTLLFVEILRERDVQAQWFDVRKVMRTNDRFGRAEPDIAALAELAALQLLPRLNEGLVITQGFIGSENKGRTTTLGRGGSDYTAALLAEALHASRVDIWTDVPGIYTTDPRVVSAAKRIDEIAFAEAAEMATFGAKVLHPATLLPAVRSDIPVFVGSSKDPRAGGTLVCNKTENPPLFRALALRRNQTLLTLHSLNMLHSRGFLAEVFGILARHNISVDLITTSEVSVALTLDTTGSTSTGDTLLTQSLLMELSALCRVEVEEGLALVALIGNDLSKACGVGKEVFGVLEPFNIRMICYGASSHNLCFLVPGEDAEQVVQKLHSNLFE"}, "B3": {"name": "H39R N43H (SEQ ID NO: 81): M. sedula succinic semialdehyde reductase double mutant H39R N43H (protein, listed as Metallosphaera sedula)", "chain": "MKAAVLHTYKEPLSIEDVNISQPKAGEVKIKVKATGLCRSDVHVFEGKTPVPPPVVAGHEISGIVEEVGPGVTRVKPGDRVISAFIHPCGKCGNCVAGKENLCETFSQVRLKGVMPDGTSRLSKDGKEIRTFLGGGFAEYAIVGENALTRVPEDMDLEKVAVLGCAGLTGYGAISSSKIEPGDTVAVIGVGGVGLSTIQLLRASGAGRIIAVGTKKWKLDRAMELGATDVVNSKEIDPVKAIKEITGGGPQVVIEAGGNEDTIHMALDSVRIGGKVVLVGLPPATAMIPIRVASIVRGGIEVVGNYGGRPRVDMPKLLELVRQGRYDPSRLVTGRFRLEEINEAVKMLEEGEAIRSLIIP"}, "B4": {"name": "Ms-SSR: succinic semialdehyde reductase from Metallosphaera sedula, wild type (protein, listed as Metallosphaera sedula)", "chain": "B3 chain with R39H, H43N"}, "B5": {"name": "Asd: wild-type aspartate semialdehyde dehydrogenase of E. coli, His-tagged (protein, listed as Escherichia coli)", "chain": "MKNVGFIGWRGMVGSVLMQRMVEERDFDAIRPVFFSTSQLGQAAPSFGGTTGTLQDAFDLEALKALDIIVTCQGGDYTNEIYPKLRESGWQGYWIDAASSLRMKDDAIIILDPVNQDVITDGLNNGIRTFVGGNCTVSLMLMSLGGLFANDLVDWVSVATYQAASGGGARHMRELLTQMGHLYGHVADELATPSSAILDIERKVTTLTRSGELPVDNFGVPLAGSLIPWIDKQLDNGQSREEWKGQAETNKILNTSSVIPVDGLCVRVGALRCHSQAFTIKLKKDVSIPTVEELLAAHNPWAKVVPNDREITMRELTPAAVTGTLTTPVGRLRKLNMGPEFLSAFTVGDQLLWGAAEPLRRMLRQLA", "modifications": "His tag", "notes": "wild-type aspartate semialdehyde dehydrogenase of E. coli, His-tagged"}, "B6": {"name": "Asd E241Q T136N: double mutant of E. coli aspartate semialdehyde dehydrogenase Asd (protein, listed as Escherichia coli)", "chain": "B5 chain with T136N, E241Q"}, "B7": {"name": "YPR1: methylbutyraldehyde reductase from Saccharomyces cerevisiae (protein, listed as Saccharomyces cerevisiae)", "chain": "MPATLKNSSATLKLNTGASIPVLGFGTWRSVDNNGYHSVIAALKAGYRHIDAAAIYLNEEEVGRAIKDSGVPREEIFITTKLWGTEQRDPEAALNKSLKRLGLDYVDLYLMHWPVPLKTDRVTDGNVLCIPTLEDGTVDIDTKEWNFIKTWELMQELPKTGKTKAVGVSNFSINNIKELLESPNNKVVPATNQIEIHPLLPQDELIAFCKEKGIVVEAYSPFGSANAPLLKEQAIIDMAKKHGVEPAQLIISWSIQRGYVVLAKSVNPERIVSNFKIFTLPEDDFKTISNLSKVHGTKRVVDMKWGSFPIFQ"}}, "assay_type_in_all_cases": "biochemical", "key": {"[1]": {"test": "Hydroxamate assay to verify phosphorylation of the substrate", "conditions": "10 mM malate, 10 mM ATP, 30 min", "procedure": "Hydroxamate assay: To verify phosphorylation of the substrate, i.e. formation of an acylphosphate anhydride, by wild-type or mutated aspartate kinases, the product of the kinase reaction was incubated with hydroxylamine to form the corresponding aspartate or malate hydroxamate derivative. The assay mixture contained 120 mM Hepes (pH 8), 200 mM KCl, 10 mM ATP, 200 mM hydroxylamine, 10 mM aspartate or malate, and appropriate amount of purified protein. The reaction was stopped after 30 min by addition of an equal volume of 1.7% (w/v) FeCl3 in 1 M hydrochloric acid. Formation of the hydroxamate-iron complex was verified by measuring its characteristic absorbance at 540 nm in a microtiter plate reader. Assay mixtures containing all components except for ATP were used as a blank."}, "[2]": {"test": "Aspartate kinase activity, ADP production coupled to NADH oxidation", "conditions": "purified enzyme, 30° C., pH 7.5", "procedure": "Enzymatic assay: Aspartate or malate kinase activities were assayed by coupling ADP production in the kinase reactions to NADH oxidation in the presence of phosphoenolpyruvate, pyruvate kinase, and lactate dehydrogenase.\nAspartate (or Malate) Kinase aspartate (or malate)+ATP→4-phospho-(L)-aspartate (or 4-phospho-(L)-malate)+ADP\nPyruvate Kinase ADP+phosphoenolpyruvate→ATP+pyruvate\nLactate Dehydrogenase pyruvate+NADH→NAD^++lactate\nThe assay mixture contained 50 mM Hepes (pH 7.5), 50 mM KCl, 5 mM MgCl2, 0.24 mM NADH, 0.96 mM ATP, 0.96 mM PEP, 9 μg/mL of lactate dehydrogenase (Sigma, L2500), 12.4 μg/mL pyruvate kinase (Sigma, P1506), and appropriate amounts of purified aspartate (malate) kinase. Reactions were started by adding 50 mM (L)-aspartate or (L)-malate. Enzymatic assays were carried out at 30° C. in 96-well flat bottomed microtiter plates in a final volume of 250 μL. The reactions were followed by the characteristic absorption of NADH at 340 nm in a microplate reader (BioRad 680XR).\nMaximum activities for LysC and Hom3 on aspartate were 4.5 μmol/(min*mgprot) and 1.6 μmol/(min*mgprot), respectively. The Km value for aspartate was estimated with the method of Eadie and Hofstee by measuring initial reaction rates (v) at different substrate concentrations (c) and by extracting the slope of the v versus v/c plot. […]"}, "[3]": {"test": "Test for malate semialdehyde reductase activity", "conditions": "for Activity on malate semialdehyde (cofactor NADPH): 0.24 mM NADPH", "procedure": "Test for Malate Semialdehyde Reductase Activity: Reaction: (L)-Malate semialdehyde+NAD(P)H→(L)-2,4-dihydroxybutyric acid+NAD(P)\nThe assay mixture contained 200 mM Hepes (pH 7.5), 50 mM KCl, 5 mM MgCl2, 0.24 mM NADH or NADPH, and appropriate amounts of purified enzyme. Reactions were started by adding 10 mM (L)-malate semialdehyde (malate semialdehyde was prepared freshly for each test, see Example 4). Enzymatic assays were carried out at 30° C. in 96-well flat bottomed microtiter plates in a final volume of 250 μL. The reactions were followed by the characteristic absorption of NAD(P)H at 340 nm in a microplate reader (BioRad 680XR)."}, "[4]": {"test": "Aspartate semialdehyde dehydrogenase activity, reverse biosynthetic direction, NADP reduction", "conditions": "His-tagged enzyme, pH 9, 30° C.", "procedure": "(§1) Enzymatic assay: Aspartate or malate semialdehyde dehydrogenase activities were assayed in the reverse biosynthetic direction by following the reduction of NADP during the oxidation of aspartate or malate semialdehyde to 4-phospho-(L)-aspartate or 4-phospho-(L)-malate, respectively (Roberts et al., 2003). (L)-aspartate semialdehyde (or (L)-malate semialdehyde)+NADP+Pi→4-phospho-(L)-aspartate (or 4-phospho-(L)-malate)+NADPH\n(§2) The assay mixture contained 200 mM Hepes (pH 9), 50 mM K2HPO4, 0.25 mM NADP. Reactions were started by adding (L)-aspartate semialdehyde or (L)-malate semialdehyde. (L)-Aspartate semialdehyde was added in the form of L-aspartic acid β-semialdehyde hydrate trifluoroacetate (maintained at pH3 to prevent degradation) which is a suitable substrate for enzymatic tests of homoserine dehydrogenase and aspartate semialdehyde dehysrogenase (Roberts et al., 2003). Unstable malate semialdehyde was produced freshly prior to the enzymatic tests by the deprotection of the stable malate semialdehyde derivative 2-[(4S)-2,2-dimethyl-5-oxo-1,3-dioxolan-4-yl]acetaldehyde (DMODA). […]\n(§3) Enzymatic assays were carried out in 96-well flat bottomed microtiter plates in a final volume of 250 μL at 30° C. The reactions were followed by the characteristic absorption of NADPH at 340 nm in a microplate reader (BioRad 680XR)."}, "[5]": {"test": "Malate semialdehyde dehydrogenase activity, reverse biosynthetic direction, NADP reduction", "procedure": "as §1, §2, §3"}, "[6]": {"conditions": "10 mM (L)-malate semialdehyde, 30° C."}}, "note": "Where a chain is given by its changes, count along the chain named. Names and notes keep the numbering of the source.", "data": [{"molecule": "B1", "values": [{"measurement": "Phosphorylation of malate as verified by the hydroxamate assay", "setting": "[1]", "value": "not able to phosphorylate malate"}, {"measurement": "Maximum activity on aspartate", "setting": "[2]", "value": "1.6 μmol/(min*mgprot)"}]}, {"molecule": "B2", "values": [{"measurement": "Phosphorylation of malate as verified by the hydroxamate assay", "setting": "[1]", "value": "not able to phosphorylate malate"}, {"measurement": "Maximum activity on aspartate", "setting": "[2]", "value": "4.5 μmol/(min*mgprot)"}]}, {"molecule": "B3", "values": [{"measurement": "Affinity for malate semialdehyde compared to the wild type enzyme", "setting": "[3]", "value": "improved affinity"}]}, {"molecule": "B4", "values": [{"measurement": "Activity on malate semialdehyde (cofactor NADH)", "setting": "[3]; 10 mM (L)-malate semialdehyde, 0.24 mM NADH, 30° C.", "value": "4.9 μmol/(min*mg_prot)"}, {"measurement": "Activity on malate semialdehyde (cofactor NADPH)", "setting": "[3]; [6]", "value": "4.9 μmol/(min*mg_prot)"}]}, {"molecule": "B5", "values": [{"measurement": "Maximum specific activity, oxidation of (L)-aspartate semialdehyde to 4-phospho-(L)-aspartate", "setting": "[4]", "value": "160 μmol/(min*mgprot)"}, {"measurement": "Activity on (L)-malate semialdehyde", "setting": "[5]; His-tagged enzyme, pH 9, 30° C.", "value": "0.01 μmol/(min*mgprot)"}]}, {"molecule": "B6", "values": [{"measurement": "Maximum specific activity", "setting": "[5]; substrate not given, Example 5 tests malate semialdehyde dehydrogenase activity", "value": "0.25 μmol/(min*mgprot)"}]}, {"molecule": "B7", "values": [{"measurement": "Activity on malate semialdehyde (cofactor NADPH)", "setting": "[3]; [6]", "value": "0.19 μmol/(min*mg_prot)"}]}]}
